According to patent US20260069728A1, “MULTI-TARGETING COMPOUND AND USE THEREOF” (Chengdu Shetai Medical Technology Co., Ltd., priority 2023, published 2026):
Read-outs that look alike come from different tables or passages of the source. *1 amine or outer side, *2 acyl side, *3 side chain or, on linkers, in order; H or OH if unused. Where a SMILES comes first, the peptide text is derived from it. Bridges are numbered along the chain shown (N, C = ends). [ ]: non-standard residue; d: D form. The star is where a group is joined. X1 = N#C[C@@H]1CC(F)(F)CN1C(=O)CNC(=O)c1ccnc2ccc(OCCCN3CCN(*)CC3)cc12; DOTA = O=C(O)CN1CCN(CC(=O)O)CCN(CC(=O)*)CCN(CC(=O)O)CC1; 2Nal = N[C@@H](Cc1ccc2ccccc2c1)C(=O)O; Cit = NC(=O)NCCC[C@H](N)C(=O)O; Suc = O=C(CCC(=O)[*:2])[*:1]; AEEA = NCCOCCOCC(=O)O

Assay: Stability of radioligands in PBS buffer (radio-HPLC)
Assay type: physicochemical
[1] = PBS buffer pH=7.4, 37° C., 0.5 hours
[2] = PBS buffer pH=7.4, 37° C., 1 hour
[3] = PBS buffer pH=7.4, 37° C., 2 hours

| SMILES | stability in PBS buffer (in words) | radiochemical purity after incubation in PBS [1] | radiochemical purity after incubation in PBS [2] | radiochemical purity after incubation in PBS [3] | stability in PBS buffer (in words) (PBS buffer pH=7.4, 37° C.) |
| --- | --- | --- | --- | --- | --- |
| N#C[C@@H]1CC(F)(F)CN1C(=O)CNC(=O)c1ccnc2ccc(OCCCN3CCN(C(=O)CCC(=O)N[C@@H](CCCCNC(=O)CN4CCN(CC(=O)O)CCN(CC(=O)O)CCN(CC(=O)O)CC4)C(=O)NCCOCCOCC(=O)NCCOCCOCC(=O)N[C@@H](CCCNC(=N)N)C(=O)N[C@@H](CCCNC(=N)N)C(=O)N[C@@H](Cc4ccc5ccccc5c4)C(=O)N[C@H]4CSSC[C@@H](C(=O)N[C@@H](CCCNC(=N)N)C(N)=O)NC(=O)[C@H](CCCNC(N)=O)NC(=O)[C@H](CCCNC(=N)N)NC(=O)[C@H](Cc5ccc(O)cc5)NC(=O)[C@@H]5CCCN5C(=O)[C@H](CCCCN)NC(=O)[C@H](CCCCN)NC(=O)[C@H](CCCNC(N)=O)NC(=O)[C@H](Cc5ccc(O)cc5)NC4=O)CC3)cc12 [^68Ga-SDYD01, metal not drawn] ({X1-Suc}-K(DOTA)[AEEA][AEEA]RR[2Nal]CY[Cit]KKPYR[Cit]CR-NH2; disulfide 7-16) | quite stable in PBS buffer | 98% | 97% | 97% |  |
| CCCCCC(=O)N[C@H]1CSCc2cc(CSCCNC(=O)[C@H](CCCCNC(=O)CN3CCN(CC(=O)O)CCN(CC(=O)O)CCN(CC(=O)O)CC3)NC(=O)COCCOCCNC(=O)COCCOCCNC(=O)CCN3C(=O)CC(SCCNC(=O)CCC(=O)NCc4ccc(NC(=O)COCC(=O)N[C@H](Cc5ccccc5)C(=O)N[C@@H](CCC(N)=O)C(=O)N[C@@H](Cc5c[nH]c6ccccc56)C(=O)N[C@@H](C)C(=O)N[C@H](C(=O)NCC(=O)N[C@@H](Cc5c[nH]cn5)C(=O)NC(CC(C)C)CC(C)C)C(C)C)cc4)C3=O)cc(c2)CSC[C@@H](C(=O)O)NC(=O)[C@H](Cc2ccccc2)NC(=O)[C@H](CCC(N)=O)NC(=O)C([C@@H](C)O)NC(=O)[C@@H]2CCCN2C(=O)[C@@H]2CCCN2C1=O (some centres unmarked) [^68Ga-SDYD04, metal not drawn] |  | 97% | 97% | 95% | quite stable in PBS buffer |
